Earlier results on two substances are cited in PMC7915401.

By Kd is commonly meant the concentration at which binding is half-saturated.

Data set [1] has as its target CD200R1 (Homo sapiens) (UniProt Q8TD46).
For data set [2] the target is unchanged. This is another data set of the same source.

Like-named read-outs stand apart in the source and are kept apart here.

UniProt Q8TD46, sequence (Q8TD46 25-265): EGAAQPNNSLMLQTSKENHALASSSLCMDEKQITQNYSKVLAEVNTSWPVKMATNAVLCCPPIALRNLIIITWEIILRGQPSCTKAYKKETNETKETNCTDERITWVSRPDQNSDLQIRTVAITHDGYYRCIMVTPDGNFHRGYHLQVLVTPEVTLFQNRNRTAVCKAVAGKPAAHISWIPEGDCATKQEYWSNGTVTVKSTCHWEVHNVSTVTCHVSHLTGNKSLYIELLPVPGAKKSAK

In the case of CD200 (from UniProt P41217), the Kd with CD200R1 (Homo sapiens) [1] is 0.5 µM.
In the case of K14 (vOX2) (from UniProt P0C788), the Kd in the data set with CD200R1 (Homo sapiens) [2] is 0.5 µM.
